Measurements as given in publication PMC3037360.

Assays:
[1] = molecular target: CFP-E2TM (CFP in fusion with the transmembrane domain of HCV E2, H strain) (hepatitis C virus (H strain)); assay: FRET or BRET
[2] = molecular target: CFP-p7 (Cerulean fluorescent protein fused to the N-terminus of HCV p7) (hepatitis C virus (strain not stated)) (UniProt P27958); assay: FRET or BRET

## YFP-E1TM (YFP in fusion with the transmembrane domain of HCV E1, H strain) (domain or fragment)
[1]
  mean lifetime of the donor protein: 2.35 ns

## YFP-NS2 (Venus yellow fluorescent protein fused to the N-terminus of HCV NS2) (from UniProt P27958 810-1026) (natural protein)
[2]
  mean lifetime of the donor protein: 2.34 ns
